# From US20260167959A1, “APTAZYME-BASED REGULATABLE GENE EXPRESSION SYSTEMS” (REJUVENATE BIO INC, priority 2022, published 2026)
# Test system: Renilla luciferase RNA
# Test: Barcoded aptazyme variant library screen: un-cleaved Renilla luciferase RNA by barcode read counts, HEK293-T cells
# Type: cell-based
# Conditions: un-cleaved Renilla luciferase RNA, HEK293-T cells cultured with 1 mM theophylline (ON) over without theophylline (OFF); barcode read counts, triplicate
# Procedure, shortened: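 Barcode sequencing of cDNA versus DNA, normalized per aptazyme, gave the un-cleaved Renilla luciferase RNA fraction and fold-change with versus without theophylline (triplicates). Library: T3H48 ribozyme with one of seven theophylline aptamer variants inserted at each position, placed in the Renilla 3′ UTR of a dual-luciferase vector.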
row,Molecule,Fold change in RNA expression between the ON state and the OFF state [fold]
1,"RA084 (nucleic acid, expressed or natural sequence) DNA: GCGCGTCCTGGAGAGAATACCAGCATCGTCTTGATGCCCTTGGAAGTCTCTTCGCGGAAACGCGTACATCCAGCTGACGAGTCCCAAATAGGACGAAACGCGC",1.7
2,"RA083 (nucleic acid, expressed or natural sequence) DNA: GCGCGTCCGGAATACCAGCATCGTCTTGATGCCCTTGGAAGTCCTGGATTCGCGGAAACGCGTACATCCAGCTGACGAGTCCCAAATAGGACGAAACGCGC",1.7
3,"RA089 (nucleic acid, expressed or natural sequence) DNA: GCGCGTCCTGGATTCGCGGAAACGCGTACATCCAGCTGACGAGTCCCAAATAGGACCGGAATACCAGCATCGTCTTGATGCCCTTGGAAGTCCGGAAACGCGC",1.7
4,"RA088 (nucleic acid, expressed or natural sequence) DNA: GCGCGTCCTGGATTCGCGGAAACGCGTACATCCCGAGAATACCAGCATCGTCTTGATGCCCTTGGAAGTCTCGAGCTGACGAGTCCCAAATAGGACGAAACGCGC",1.7
5,"RA008 (nucleic acid, expressed or natural sequence) DNA: GCGCGTCCTGGATTCGCGGAAACGGAATACCAGCATCGTCTTGATGCCCTTGGAAGTCCGCGCGTACATCCAGCTGACGAGTCCCAAATAGGACGAAACGCGC",4.2
6,"RA080 (nucleic acid, expressed or natural sequence) DNA: GCGCGTCCTGGATTCGGAGAATACCAGCATCGTCTTGATGCCCTTGGAAGTCTCCGGAAACGCGTACATCCAGCTGACGAGTCCCAAATAGGACGAAACGCGC",1.7
7,"RA085 (nucleic acid, expressed or natural sequence) DNA: GCGCGTCCTGGATTCGCGGAAACGCGTACATCCAGAATACCAGCATCGTCTTGATGCCCTTGGAAGTCTAGCTGACGAGTCCCAAATAGGACGAAACGCGC",1.7
8,"RA082 (nucleic acid, expressed or natural sequence) DNA: GCGCGTCCTGGATTCGAGAATACCAGCATCGTCTTGATGCCCTTGGAAGTCTCGGAAACGCGTACATCCAGCTGACGAGTCCCAAATAGGACGAAACGCGC",1.7
9,"RA087 (nucleic acid, expressed or natural sequence) DNA: GCGCGTCCTGGATTCGCGGAAACGCGTACATCCAGCTGACGAGCGAGAATACCAGCATCGTCTTGATGCCCTTGGAAGTCTCGTCCCAAATAGGACGAAACGCGC",1.7
10,"RA086 (nucleic acid, expressed or natural sequence) DNA: GCGCGTCCTGGATTCGCGGAAACGCGGAATACCAGCATCGTCTTGATGCCCTTGGAAGTCCGCGTACATCCAGCTGACGAGTCCCAAATAGGACGAAACGCGC",1.7
11,"RA081 (nucleic acid, expressed or natural sequence) DNA: GCGCGTCCTGGATTCGCGGAAACGCGTACATCCAGCTGACGAGTCCCAAGGAATACCAGCATCGTCTTGATGCCCTTGGAAGTCCATAGGACGAAACGCGC",1.7
